Experimental data: the supplement of paper PMC9233669
This sample holds only a part of the variants without activity.

Experiments:
biotinyl-Phe-oxazolone = assay: self-aminoacylation, catalytic enhancement (BFO) (fold over background); higher = more active; k-Seq, kA / k0A0; sequences stand for … in GGGAAUGGAUCCACAUCUACGAAUUC…UUCACUGCAGACUUGACGAAGCUG
Procedure, shortened: (§1)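 Working in 50 μL HEPES/NaCl/KCl/MgCl2/CaCl2 buffer with 5% acetonitrile at pH 6.9–7.0, mutagenized RNA pools (0.43 μM; 21-nt variable region) were reacted with 2–1250 μM of each biotinyl-aminoacyl-oxazolone for 90 minutes at room temperature. Streptavidin capture followed, with quantification by triplicate qPCR and Illumina sequencing. Catalytic enhancement is reported as median kA over the uncatalyzed rate, the low-activity peak of a bimodal Gaussian fit to the data.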

biotinyl-Ile-oxazolone = assay: self-aminoacylation, catalytic enhancement (BIO) (fold over background); higher = more active; k-Seq, kA / k0A0; sequences stand for … in GGGAAUGGAUCCACAUCUACGAAUUC…UUCACUGCAGACUUGACGAAGCUG
Procedure, shortened: as §1

biotinyl-Met-oxazolone = assay: self-aminoacylation, catalytic enhancement (BMO) (fold over background); higher = more active; k-Seq, kA / k0A0; sequences stand for … in GGGAAUGGAUCCACAUCUACGAAUUC…UUCACUGCAGACUUGACGAAGCUG
Procedure, shortened: as §1

biotinyl-Val-oxazolone = assay: self-aminoacylation, catalytic enhancement (BVO) (fold over background); higher = more active; k-Seq, kA / k0A0; sequences stand for … in GGGAAUGGAUCCACAUCUACGAAUUC…UUCACUGCAGACUUGACGAAGCUG
Procedure, shortened: as §1

biotinyl-Leu-oxazolone = assay: self-aminoacylation, catalytic enhancement (BLO) (fold over background); higher = more active; k-Seq, kA / k0A0; sequences stand for … in GGGAAUGGAUCCACAUCUACGAAUUC…UUCACUGCAGACUUGACGAAGCUG
Procedure, shortened: as §1

biotinyl-Trp-oxazolone = assay: self-aminoacylation, catalytic enhancement (BWO) (fold over background); higher = more active; k-Seq, kA / k0A0; sequences stand for … in GGGAAUGGAUCCACAUCUACGAAUUC…UUCACUGCAGACUUGACGAAGCUG
Procedure, shortened: as §1

Row | Sequence | self-aminoacylation (biotinyl-Phe-oxazolone) | self-aminoacylation (biotinyl-Ile-oxazolone) | self-aminoacylation (biotinyl-Met-oxazolone) | self-aminoacylation (biotinyl-Val-oxazolone) | self-aminoacylation (biotinyl-Leu-oxazolone) | self-aminoacylation (biotinyl-Trp-oxazolone)
1 | CUAUUUCAAACAAUCGGGCUG [Fam1A.1 aminoacylation ribozyme variant] | 2.05 | 1.24 | 1.08 | 1 | 0.844 | 1.88
2 | CUAUUUCAAACAAUCGGUCUU [Fam1A.1 aminoacylation ribozyme variant] | 2.72 | 0.864 | 0.878 | 0.827 | 0.792 | 1.57
3 | CUAUUUCAAACAAUCGGUUUG [Fam1A.1 aminoacylation ribozyme variant] | 4.11 | 0.907 | 0.903 | 0.81 | 1 | 3.18
4 | CUCACCCUGGUCAUCGAGUGA [Fam2.1 aminoacylation ribozyme variant] | 27.1 | 3.71 | 5.33 | 4.49 | 7.38 | 6.74
5 | CUCCGUCAAACAAUCGGUCUG [Fam1A.1 aminoacylation ribozyme variant] | 1.97 | 1.07 | 1.02 | 0.973 | 0.889 | 1.29
6 | CUCCUCCAAACAAUCGGUCUG [Fam1A.1 aminoacylation ribozyme variant] | 2.28 | 1.06 | 0.973 | 0.846 | 0.846 | 2.85
7 | CUCCUUAAAACAAUCGGUCUG [Fam1A.1 aminoacylation ribozyme variant] | 1.05 | 1.06 | 1.12 | 0.862 | 0.899 | 1.32
8 | CUCCUUCAAACAAUCGGCCUG [Fam1A.1 aminoacylation ribozyme variant] | 131 | 2.04 | 2.63 | 2.15 | 3.39 | 61.7
9 | CUCGUUCAAACAAUCGGUCUG [Fam1A.1 aminoacylation ribozyme variant] | 10.2 | 1.09 | 0.961 | 1.07 | 1.31 | 6.95
10 | CUGAUUCAAACAAUCGGUCUG [Fam1A.1 aminoacylation ribozyme variant] | 9.61 | 0.947 | 0.923 | 0.828 | 1.14 | 6.12
11 | CUGCAUCAAACAAUCGGUCUG [Fam1A.1 aminoacylation ribozyme variant] | 10.1 | 1.08 | 1.13 | 1.05 | 1.18 | 7.51
12 | CUGCUUCAAACAAUCGGGCUG [Fam1A.1 aminoacylation ribozyme variant] | 38.7 | 2.2 | 2.66 | 2.33 | 3.18 | 36.1
13 | CUGCUUCAAGCAAUCGGUCUG [Fam1A.1 aminoacylation ribozyme variant] | 132 | 1.29 | 2.13 | 1.49 | 2.96 | 42.8
14 | CUGCUUUAAACAAUCGGUCUG [Fam1A.1 aminoacylation ribozyme variant] | 2 | 0.889 | 0.879 | 0.79 | 0.754 | 1.87
15 | CUUACCCUGGACAUCGAGUGA [Fam2.1 aminoacylation ribozyme variant] | 11.5 | 2.78 | 5.08 | 3.18 | 5.46 | 5.06
16 | CUUACCCUGGUCAUAGAGUGA [Fam2.1 aminoacylation ribozyme variant] | 24.2 | 2.86 | 6.37 | 2.83 | 5.85 | 7.46
17 | CUUACCCUGGUCAUCGAGUAA [Fam2.1 aminoacylation ribozyme variant] | 8.84 | 2.03 | 4.58 | 2.8 | 4.25 | 3.51
18 | CUUACCCUGGUCAUCGAGUCA [Fam2.1 aminoacylation ribozyme variant] | 0.627 | 0.742 | 0.897 | 1.07 | 0.705 | 0.547
19 | CUUACCCUGGUCAUCGAGUGA [Fam2.1 aminoacylation ribozyme variant] | 85.8 | 9.83 | 25.3 | 11 | 23.1 | 26.1
20 | CUUACCCUGGUCAUCGAGUUA [Fam2.1 aminoacylation ribozyme variant] | 4.79 | 1.53 | 2.5 | 1.73 | 2.36 | 2.08
21 | CUUACCCUGGUCUUCGAGUGA [Fam2.1 aminoacylation ribozyme variant] | 17.9 | 2.29 | 3.87 | 2.64 | 4.29 | 5
22 | CUUACCCUGGUGAUCGAGUGA [Fam2.1 aminoacylation ribozyme variant] | 14.5 | 2.65 | 4.51 | 2.81 | 4.36 | 5.52
23 | CUUACCCUGUUCAUCGAGUGA [Fam2.1 aminoacylation ribozyme variant] | 7.83 | 2.29 | 4.32 | 2.86 | 4.33 | 6.94
24 | CUUAUUCAAACAAUCGGUCUG [Fam1A.1 aminoacylation ribozyme variant] | 7.03 | 0.702 | 0.713 | 0.688 | 0.679 | 3.34
25 | CUUCACCAAGGUCAUCGGGUG [Fam2.2 aminoacylation ribozyme variant] | 59.9 | 4.21 | 8.17 | 5.4 | 9.25 | 7.64
26 | CUUCACCGAGGUCAUCGGGUG [Fam2.2 aminoacylation ribozyme variant] | 59.7 | 3.01 | 6.2 | 4.68 | 7.45 | 5.44

Row | Sequence | self-aminoacylation (biotinyl-Phe-oxazolone) | self-aminoacylation (biotinyl-Ile-oxazolone) | self-aminoacylation (biotinyl-Met-oxazolone) | self-aminoacylation (biotinyl-Val-oxazolone) | self-aminoacylation (biotinyl-Leu-oxazolone) | self-aminoacylation (biotinyl-Trp-oxazolone)
27 | CUUCACCUAGGUAAUCGGGUG [Fam2.2 aminoacylation ribozyme variant] | 1.56 | 1.59 | 2.65 | 1.65 | 2.68 | 2.7
28 | CUUCACCUAGGUCAUCGGAUG [Fam2.2 aminoacylation ribozyme variant] | 1 | 1.06 | 0.842 | 1.18 | 0.891 | 0.921
29 | CUUCACCUAGGUCAUCGUGUG [Fam2.2 aminoacylation ribozyme variant] | 3.33 | 1.21 | 1.6 | 1.26 | 1.39 | 1.12
30 | CUUCACCUAGGUCCUCGGGUG [Fam2.2 aminoacylation ribozyme variant] | 34.1 | 3.4 | 6.74 | 4.26 | 7.45 | 6.69
31 | CUUCACCUGGGUCAUCGGGUG [Fam2.2 aminoacylation ribozyme variant] | 25 | 2.43 | 4.02 | 5 | 4.82 | 4.89
32 | CUUCACUUAGGUCAUCGGGUG [Fam2.2 aminoacylation ribozyme variant] | 23.4 | 2.82 | 4.3 | 2.8 | 5.55 | 5.12
33 | CUUCUACAAACAAUCGGUCUG [Fam1A.1 aminoacylation ribozyme variant] | 0.956 | 0.694 | 0.763 | 0.831 | 0.623 | 0.564
34 | CUUCUGCAAACAAUCGGUCUG [Fam1A.1 aminoacylation ribozyme variant] | 1.52 | 0.957 | 0.85 | 0.889 | 0.795 | 0.919
35 | CUUCUUCAAACAAGCGGUCUG [Fam1A.1 aminoacylation ribozyme variant] | 0.813 | 1.09 | 0.925 | 0.958 | 1.04 | 0.713
36 | CUUCUUCAAACAAUCCGUCUG [Fam1A.1 aminoacylation ribozyme variant] | 1.17 | 0.85 | 0.623 | 0.901 | 0.923 | 0.964
37 | CUUCUUCAAACAAUCGGUAUG [Fam1A.1 aminoacylation ribozyme variant] | 9.62 | 0.784 | 0.647 | 0.66 | 0.779 | 4.71
38 | CUUCUUCAAACAAUCGGUCAG [Fam1A.1 aminoacylation ribozyme variant] | 5.5 | 0.818 | 0.655 | 0.734 | 0.623 | 2.59
39 | CUUCUUCAAACAAUCGGUCUG [Fam1A.1 aminoacylation ribozyme variant] | 35.5 | 0.898 | 0.996 | 0.902 | 1.41 | 17.6
40 | CUUCUUCAAACAGUCGGUCUG [Fam1A.1 aminoacylation ribozyme variant] | 0.711 | 0.697 | 0.821 | 0.771 | 0.803 | 0.848
41 | CUUCUUCAAGCAAUCGGUCUG [Fam1A.1 aminoacylation ribozyme variant] | 3.14 | 0.745 | 0.909 | 0.944 | 0.978 | 2.18
42 | CUUCUUCACACAAUCGGUCUG [Fam1A.1 aminoacylation ribozyme variant] | 0.889 | 0.714 | 0.749 | 0.782 | 0.775 | 0.81
43 | CUUCUUCAGACAAUCGGUCUG [Fam1A.1 aminoacylation ribozyme variant] | 0.958 | 0.76 | 0.651 | 0.751 | 0.606 | 0.559
44 | GAGAUUGCUAAUAGUCGCAAG [Fam3.1 aminoacylation ribozyme variant] | 1.8 | 1.88 | 1.67 | 1.98 | 1.52 | 2.94
45 | GAGUAUGCUAAUAGUCGCAAG [Fam3.1 aminoacylation ribozyme variant] | 6.5 | 1.91 | 1.49 | 1.61 | 1.45 | 4.13
46 | GAGUUUGCUAACAGUCGCAAG [Fam3.1 aminoacylation ribozyme variant] | 10.7 | 1.4 | 1.62 | 1.41 | 1.3 | 5.6
47 | GAGUUUGCUAAUAGGCGCAAG [Fam3.1 aminoacylation ribozyme variant] | 1.4 | 0.982 | 0.961 | 0.836 | 1.02 | 1.35
48 | GAGUUUGCUAAUAGUCACAAG [Fam3.1 aminoacylation ribozyme variant] | 11.7 | 1.84 | 1.62 | 1.48 | 1.36 | 4.25
49 | GAGUUUGCUAAUAGUCGGAAG [Fam3.1 aminoacylation ribozyme variant] | 11.6 | 1.38 | 1.6 | 1.38 | 1.16 | 4.68
50 | GCACACCUCAAGCAAUCGGUC [Fam1B.1 aminoacylation ribozyme variant] | 2.09 | 1.4 | 1.3 | 1.73 | 1.23 | 2.46
51 | GCACACUUCAAGCAAUCGGCC [Fam1B.1 aminoacylation ribozyme variant] | 4.88 | 3.36 | 2.99 | 3.45 | 3.49 | 6.96
